Assay results taken from the supplement of paper PMC9170038.

System: MS2 coat protein
Experiment: apparent KD of MS2 coat protein; designed switch direction (-1 OFF switch, 1 ON switch): -1; higher = weaker reporter binding
Summary of the method: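 Apparent KD, taken as the median over clusters for each design, was obtained by curve-fitting normalised cluster fluorescence. Designed RNA switches had been transcribed on Illumina chips by stalled E. coli RNA polymerase and titrated with SNAP-549-labelled MS2 coat protein, doubling from 0.7 or 1.5 nM to 3 µM.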

[1] = input ligand: microRNA oligo, concentration not stated
[2] = Eterna round: R95, input ligand: microRNA oligo, concentration not stated
[3] = Eterna round: R95, input ligand: FMN 200 uM
[4] = Eterna round: R95, input ligand: none

Sequence	apparent KD of MS2 coat protein (input ligand: FMN 200 uM)	apparent KD of MS2 coat protein [1]	apparent KD of MS2 coat protein (input ligand: none)	apparent KD of MS2 coat protein [2]	apparent KD of MS2 coat protein [3]	apparent KD of MS2 coat protein [4]
UGAUCUAGCGGAGGAUAUACAUGAGGAUCACCCAUGUAGUUGUCUGUACCGUAGUGCAGACUUGUGUAGAAGGCCGCUAGAUCU [JL ENG2 3.62] (Eterna round: R96, puzzle: Exclusion NG 2)	25.9 nM	9.62 nM	14.3 nM			
UGAUCUAGCGGAGGAUAUACAUGAGGAUCACCCAUGUAUACUCUAUGACCGUAGUCGUGGAGCGUGUAGAAGGCCGCUAGAUCU [JL ENG2 3.76] (Eterna round: R96, puzzle: Exclusion NG 2)	14.6 nM	9.1 nM	11.6 nM			
UGAUCUAGCGGAGGAUAUACAUGAGGAUCACCCAUGUAUAGUCUAUGACCGUAGUCGUGGAACGUGUAGAAGGCCGCUAGAUCU [JL ENG2 3.78] (Eterna round: R96, puzzle: Exclusion NG 2)	18.4 nM	10.2 nM	14.4 nM			
UGAUCUUGUGUCAGGAUAUGCUGGUCUCCUCUCCAGCAGAAGGGACAUGAGGAUCACCCAUGUUCUCUCUUUUU [Magic-11] (puzzle: Brourd's mod of Exclusion 4)				11.5 nM		
UGAUCUUUUGUUAGGAUAUGCUGGCUGAAAAGUCAGCAGAAGGGACAUGAGGAUCACCCAUGUUCUCUCUUUUU [Magic-09] (puzzle: Brourd's mod of Exclusion 4)				10.3 nM		
UGAUUUGGAGGAUAUACAUGAGGAUCACCCAUGUAAAGGCCGUGGGUCGAACCCGAGAGUAGAAGGUCGAGAGA [Eternabot (L1) Solution 30] (Eterna round: R97, puzzle: Exclusion 3)	185 nM		91.7 nM			
UGCAAGCUUUUAAGAUCCUACAUGAGGAUCACCCAUGUGCUCGUCUUAUAACGUACUGUGACGAAAGUCACGGUACG [JL TOV1 3.95] (Eterna round: R97, puzzle: Sensor, turn-off variant 1)	105 nM		114 nM			
UGCAGACGAGGAUAUAAAUUUGAUAACAUGAGGAUCACCCAUGUGAUCGAUAGAUCAAAUUUAGAAGGCGUCUGCA [E5/7-A2] (Eterna round: R97, puzzle: Exclusion 5)	369 nM		717 nM			
UGCAGACGAGGAUAUGAUAAAGAUCACAUGAGGAUCACCCAUGUAGCGUCGAUAGACGCAUCAGAAGGCGUCUGCA [E5/1-A2] (Eterna round: R97, puzzle: Exclusion 5)	16.3 nM		16 nM			
UGCAUGUAAGGAUAUGCAACCUGCGCUCAUUAGCAGGUCAAGCAGAAGGUACAUGAGGAUCACCCAUGUGUCCG [Tebisoma] (Eterna round: R96, puzzle: Exclusion 4)	462 nM	25.2 nM	31.6 nM			
UGCAUGUAAGGAUAUGCAUCCGCCGACGUCCCGGCGGCACAGCAGAAGGUACAUGAGGAUCACCCAUGUGUCCC [Qusousar] (Eterna round: R96, puzzle: Exclusion 4)	449 nM	24 nM	31 nM			
UGCCAGAAAGGAUAUACAUGAGGAUCACCCAUGUAACCCUAUGUGAGAGUUCCCGUUUGUAGAAGGUUCUCGUA [EX3 C.22] (Eterna round: R97, puzzle: Exclusion 3)	21.3 nM		18.2 nM			
UGCGGGCUUUUGAGACCUCACAUGAGGAUCACCCAUGUGCUUGUCUUGUGAGUGGGUAGGUCGUUGGCUGACUCACG [Sensor-V1 #99] (Eterna round: R97, puzzle: Sensor, turn-off variant 1)	23.4 nM		23.1 nM			
UGCUACAUGAGGAUCACCCAUGUAAUGUGGGAUUCGUUAGGACAGGAUAUGAUUGUAUAGUUUUUUCAGAAGGGUCAUUACUUU [JR_ExcNG3_Sub010] (Eterna round: R96, puzzle: Exclusion NG 3)		62.9 nM				
UGCUACGGAGGAUAUACAUGAGGAUCACCCAUGUGAUAGAUUAUCGCGAGAGCGUAAUGUAGAAGGCCGUAGCU [jl-ex3-4.12 jl mod] (Eterna round: R97, puzzle: Exclusion 3)	506 nM		56 nM			
UGGGAACGAGGAUAUCGAUGGUGGAACAUGAGGAUCACCCAUGUAUGAGAUAGUGUAGUUCGAGAAGGCGUUAAGU [JR_E5_Sub053] (puzzle: Exclusion 5)				54 nM		
UGUAACCUAGGAUAUACAUGAGGAUCACCCAUGUAAUGUAGUAUAGUGUGUGUAAGGUGUAGAAGGAGGGAUGU [LRO-Excl05-22-Smart Aleck] (Eterna round: R97, puzzle: Exclusion 3)	9.76 nM		62.9 nM			

Sequence	apparent KD of MS2 coat protein (input ligand: FMN 200 uM)	apparent KD of MS2 coat protein [1]	apparent KD of MS2 coat protein (input ligand: none)	apparent KD of MS2 coat protein [2]	apparent KD of MS2 coat protein [3]	apparent KD of MS2 coat protein [4]
UGUAAGCUAGGAUAUGCUUUGGGAAAGCAUUCCUUCGAUAAACUUGAGGAUCACCCAAGUAGAAGGAGCUUACG [salish99_ex2_r4_007] (Eterna round: R97, puzzle: Exclusion 2)	14.1 nM		12.8 nM			
UGUACCAUAGGAUAUACAUGAGGAUCACCCAUGUUAAUACGAUAUGUAAUGGUUACUUGUAGAAGGAUGAAAAG [Eternabot (L1) Solution 29] (Eterna round: R97, puzzle: Exclusion 3)	14.9 nM		11 nM			
UGUACUAUGCGUGCUGACAUGCGUAGUGCAGCAGGUGUAACAUGAGGAUCACCCAUGUCCUCAUUUGCUCGUCUUAU [SL-sv3-2.06 JL mod] (puzzle: Sensor v3, turn-off variant 2)				176 nM	194 nM	273 nM
UGUCAGAUGGUAGGAUAUCUAUAUCGAGUGACCCUUUCAUAACAUGAGGAUCACCCAUGUCGGUGGGAGAAGGGCCGUAUGGUG [salish99_ExNG02_R04_029] (Eterna round: R96, puzzle: Exclusion NG 2)	28.6 nM	23.2 nM	28.5 nM			
UGUGAGCAUGUCAGGAUAUGCAUCACAGUUAGGAUGUAGAAGGGACAUGAGGAUCACCCAUGUAGCUUCAGGUA [BmEX4 A.20] (Eterna round: R97, puzzle: Brourd's mod of Exclusion 4)	17.7 nM		14.5 nM			
UGUGCGUAUGUGAGGAUAUGCUGGUCCUUGGAUCAGCAGAAGGCACAUGAGGAUCACCCAUGUGGUGUCGUACA [salish99_Bmod_Ex4_007] (puzzle: Brourd's mod of Exclusion 4)				158 nM	29.2 nM	307 nM
UGUGCGUAUGUGAGGAUAUGCUGGUCCUUGGAUCGGCAGAAGGCACAUGAGGAUCACCCAUGUGGUGUCGUUCC [salish99_Bmod_ex4_095] (puzzle: Brourd's mod of Exclusion 4)				102 nM		
UGUGCGUAUGUGAGGAUAUGCUGGUCCUUGGCUCGGCAGAAGGCACAUGAGGAUCACCCAUGUGGUGUCGUACC [salish99_Bmod_ex4_060] (puzzle: Brourd's mod of Exclusion 4)				33.1 nM		
UGUGCGUCAGGAUAUUCUACUUAUUACAUGAGGAUCACCCAUGUGAAUGUACAAGGGUGUGAAGAAGGGACUUGUC [LRO-Excl5-05-mod A17d by Omei] (Eterna round: R97, puzzle: Exclusion 5)	194 nM		798 nM			
UGUGCUCUAGGAUAUGCGUAAGCUGAUACGUCAGCAGGUCUACAUGAGGAUCACCCAUGUAGAAGGAGAGUACU [jl-ex2-4.00] (Eterna round: R97, puzzle: Exclusion 2)	18.6 nM		20.8 nM			
UGUGUGAGACAGGAUAUGCCGGUUGUGUUGCUGGUAGAAGGGUCUACAUGAGGAUCACCCAUGUGGCCGGUUGG [Ex6 #80] (Eterna round: R97, puzzle: Exclusion 6)	19.1 nM		17.3 nM			
UGUUCGUCAGGAUAUUCUACUUAUUACAUGAGGAUCACCCAUGUGUAUGUACAAGGGUGUGAAGAAGGGACUUGUC [LRO-Excl5-07-mod A17d by Omei] (Eterna round: R97, puzzle: Exclusion 5)	331 nM		1240 nM			
UGUUGUCGCGCAGGAUAUGAGGAUCACCCAUAUACAGGAUAUGAAAAGAAGGGUCUGAGGAUCACCCAGAAGGGCGGGACAACU [pwkr exNG2 2xF5 2xFMN.27] (Eterna round: R96, puzzle: Exclusion NG 2)	1340 nM	99.9 nM	135 nM			
UUAAAAUAUGUAGGAUAUGCGUGGCGAAGCUAUGCAGAAGGACAUGAGGAUCACCCAUGUUCCUGCGUCCGCGUACGGAUGCAA [JL Eng1 1.21 mod 3] (Eterna round: R96, puzzle: Exclusion NG 1)	14.8 nM	9.15 nM	12.4 nM			
UUAAAUCAUGUAGGAUAUGCGUGGCGAAGCUAUGCAGAAGGACAUGAGGAUCACCCAUGUGCUGCGGUCUGCGUACAGAUCGCA [JL ENG1 1.06] (Eterna round: R96, puzzle: Exclusion NG 1)	87.6 nM	259 nM	307 nM			
UUAAAUCAUGUAGGAUAUGCGUGGCGAAGCUAUGCAGAAGGACAUGAGGAUCACCCAUGUUCUGCGGUCUGCGUACAGAUCGCA [JL ENG1 1.05] (Eterna round: R96, puzzle: Exclusion NG 1)	502 nM	29.1 nM	42.7 nM			
UUAAAUCAUGUAGGAUAUGCGUGGCGAAGCUAUGCAGAAGGACAUGAGGAUCACCCAUGUUCUUGCGUCUGCGUACAGAUGCGG [Exclusion NG 1] (Eterna round: R96, puzzle: Exclusion NG 1)	175 nM	20 nM	25.9 nM			
